Biological target: GlnR;RNAP holoenzyme (Mycobacterium …, UniProt O53830;P9WGZ1;P9WGY9;P9WGY7;P9WGY5;P9WGI1 1-255;1-347;1-1178;1-1316;1-110;1-528, |)
Test: cryo-EM

B1: amtB scaffold (dsDNA)
DNA 1: CTTCGTCACGGCGGCGAAACAACGAGGGGCTTCCACCGAAACCGCGCTGCGTTATAATGGGAGCTGTCACGGATGCA
DNA 2: TGCATCCGTGAGTCGAGGGTAATAAACGCAGCGCGGTTTCGGTGGAAGCCCCTCGTTGTTTCGCCGCCGTGACGAAG
Question: Does B1 bind?
Answer: Result: binds

Reference: article doi:10.1101/2023.01.09.523197
